Molecular target: T1, recombinant mTOR kinase domain (amino acid 1363-2549) (UniProt P42345 1363-2549)
T1 construct: also called mTOR kinase domain protein; mTOR (in vitro); source: bought: Sigma-Aldrich (Cat #14-770)
Assay: co-IP; in vitro: ETV7 and mTOR incubated overnight at 4 °C in the presence or absence of Ndel-FRB and/or 120 aa-LBE; ETV7 IPs immunoblotted for mTOR, ETV7 and Flag
Conditions: both partners purified

T1 sequence (P42345 1363-2549): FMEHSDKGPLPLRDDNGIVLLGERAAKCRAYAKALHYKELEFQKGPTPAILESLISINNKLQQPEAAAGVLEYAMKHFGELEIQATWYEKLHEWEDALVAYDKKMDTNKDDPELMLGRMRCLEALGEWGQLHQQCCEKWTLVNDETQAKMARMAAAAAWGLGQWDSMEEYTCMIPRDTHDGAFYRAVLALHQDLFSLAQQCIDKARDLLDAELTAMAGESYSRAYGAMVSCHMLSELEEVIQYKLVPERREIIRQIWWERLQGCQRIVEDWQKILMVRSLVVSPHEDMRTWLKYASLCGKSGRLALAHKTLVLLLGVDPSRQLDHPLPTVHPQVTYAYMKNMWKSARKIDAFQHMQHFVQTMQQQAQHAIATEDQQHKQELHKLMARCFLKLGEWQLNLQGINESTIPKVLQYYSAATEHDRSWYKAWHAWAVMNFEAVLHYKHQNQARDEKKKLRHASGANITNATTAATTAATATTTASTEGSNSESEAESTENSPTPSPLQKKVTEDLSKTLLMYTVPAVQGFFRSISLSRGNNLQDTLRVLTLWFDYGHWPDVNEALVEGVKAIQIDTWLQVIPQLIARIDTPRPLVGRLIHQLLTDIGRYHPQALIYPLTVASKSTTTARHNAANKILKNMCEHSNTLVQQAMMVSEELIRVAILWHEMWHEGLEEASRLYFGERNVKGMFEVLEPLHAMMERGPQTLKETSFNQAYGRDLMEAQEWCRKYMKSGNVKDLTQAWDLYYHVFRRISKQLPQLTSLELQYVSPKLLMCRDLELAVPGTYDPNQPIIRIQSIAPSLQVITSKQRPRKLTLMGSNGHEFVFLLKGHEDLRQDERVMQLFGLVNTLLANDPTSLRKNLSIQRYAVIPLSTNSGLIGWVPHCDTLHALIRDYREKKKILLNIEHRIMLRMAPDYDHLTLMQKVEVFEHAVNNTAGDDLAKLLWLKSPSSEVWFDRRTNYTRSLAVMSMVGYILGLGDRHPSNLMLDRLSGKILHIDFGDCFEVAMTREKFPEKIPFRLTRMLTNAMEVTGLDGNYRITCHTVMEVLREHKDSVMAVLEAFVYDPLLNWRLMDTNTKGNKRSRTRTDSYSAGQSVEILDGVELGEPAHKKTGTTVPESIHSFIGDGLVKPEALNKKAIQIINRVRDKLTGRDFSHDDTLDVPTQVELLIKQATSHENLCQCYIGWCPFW

B1: ETV7 protein (recombinant) (natural protein)
chain: MQEGELAISPISPVAAMPPLGTHVQARCEAQINLLGEGGICKLPGRLRIQPALWSREDVLHWLRWAEQEYSLPCTAEHGFEMNGRALCILTKDDFRHRAPSSGDVLYELLQYIKTQRRALVCGPFFGGIFRLKTPTQHSPVPPEEVTGPSQMDTRRGHLLQPPDPGLTSNFGHLDDPGLARWTPGKEESLNLCHCAELGCRTQGVCSFPAMPQAPIDGRIADCRLLWDYVYQLLLDTRYEPYIKWEDKDAKIFRVVDPNGLARLWGNHKNRVNMTYEKMSRALRHYYKLNIIKKEPGQKLLFRFLKTPGKMVQDKHSHLEPLESQEQDRIEFKDKRPEISP
notes: ETV7, bought recombinant protein; also called ETV7 (in vitro); purified ETV7; source: bought: Origene (Cat #TP307742)
Question: Does B1 bind?
Answer: Result: binds
